Assay results from patent US7880021B2, “Compounds and kits for the detection and the quantification of cell apoptosis” (Centre National de la Recherche Scientifique (CNRS), priority 2005, dated 2011).
Numbered stars: 1 amine (or outer) side, 2 acyl side, 3 side chain; on linkers, the order of the positions; unused ones are H or OH. Bridge positions count the residues as written; N and C are the ends. Square brackets hold non-standard residues; d marks the D form. Peptide text beside a SMILES is read from it. I, II: the chains in the order shown. Actinocin(9to1) = Cc1c2oc3c(C)ccc(C(=O)[*:1])c3nc-2c(C(=O)[*:2])c(N)c1=O; NMeV = CN[C@H](C(=O)O)C(C)C; Sar = CNCC(=O)O

B1: annexin V-FITC: Annexin V labelled with fluorescein isothiocyanate, kit from Immunotech; reference apoptosis marker (protein, UniProt P08758 2-320, looked up)
Annexin A5: AQVLRGTVTDFPGFDERADAETLRKAMKGLGTDEESILTLLTSRSNAQRQEISAAFKTLFGRDLLDDLKSELTGKFEKLIVALMKPSRLYDAYELKHALKGAGTNEKVLTEIIASRTPEELRAIKQVYEEEYGSSLEDDVVGDTSGYYQRMLVVLLQANRDPDAGIDEAQVEQDAQALFQAGELKWGTDEEKFITIFGTRSVSHLRKVFDKYMTISGFQIEETIDRETSGNLEQLLLAVVKSIRSIPAYLAETLYYAMKGAGTDDHTLIRVMVSRSEIDLFNIRKEFRKNFATSLYSMIKGDTSGDYKKALLLLCGEDD
modifications: FITC label

Assays:
CEM T cells = assay: Determination of hypodiploid DNA with PI by flow cytometry; assay type: cell-based, human; conditions: actinomycin D 0.5 μg/ml for 18 h; mean±SEM
Method: (§1) Human lymphoid CEM T cells were cultured in X-vivo 15 medium (Cambrex, France) at 37° C. in humidified 5% CO2 atmosphere. Cell viability was checked by trypan blue exclusion. Cells were seeded at 5×10^5 cells/ml in the presence or absence of actinomycin D (0.5 μg/ml) for 18 h. Cells were pelleted by centrifugation at 1500 rpm for 5 min and resuspended at 1×10^6 cells/ml in X-vivo 15 medium for experiments.
To verify the proportion of apoptotic cells, measurements of hypodiploid DNA with PI by flow cytometry have been performed. After apoptotic treatment, cells were harvested and numbered. Concentration in a 70% ethanol solution in H2O was adjusted to 5×10^5 cells/ml and fixation was allowed to proceed for at least 1 h at 4° C. Cells were washed once in Hank's balanced salt solution (HBSS) before resuspension in HBSS containing RNAse (0.5 mg/ml), PI (0.1 mg/ml) and incubation for 15 min at room temperature in the dark. Samples were analysed by flow cytometry using the CELLQuest software (Becton Dickinson, San Jose, Calif.). Under these conditions, the content of hypodiploid DNA in CEM T cells was 30±2% (mean±SEM).

T lymphocytes = assay: Laser scanning confocal ratiometric imaging of T lymphocytes; assay type: cell-based
Method: FIG. 9: Laser scanning confocal imaging of T lymphocytes stained with annexin V-FITC (a) and F2N12S (b and c). Combination of transmission and fluorescence images of cells treated with actinomycin D for 18 hours (please complete this sentence). […] Due to their low binding to annexin V, normal cells are not visualized in the fluorescence images. (b and c) Ratiometric images of normal (b) and actinomycin D-treated (c) cells stained with 0.2 μM F2N12S. […] The size of the images is 60×73.1 μm.
FIG. 10: Time-series of confocal fluorescence ratiometric images of actinomycin D-treated T lymphocytes stained with F2N12S. The cells were treated with actinomycin D for 18 hours and then, incubated with the probe (0.2 μM) for 5 min. Images were recorded at 1 min (a), 10 min (b) and 20 min (c) post incubation. […] The size of the images is 60×73.1 μm.
For collecting cell images, a Laser Scanning Confocal Imaging System MRC-1024 (Bio-Rad) was used. Cells in chambered cover glass were prepared by following the preparation procedure described above. The 442 nm line of a HeCd laser was used as the excitation light source. Emission was collected by using two filters: 485/30 for the N* band and 585LP for the T* band. Collected images were analyzed by the Amira 3.0 software.
To further compare F2N12S and annexinV-derived probes, two-color ratiometric images of F2N12S-labeled cells undergoing apoptosis were recorded by laser scanning confocal microscopy and compared with intensity based images obtained using annexin V-FITC. […] Moreover, the fluorescence intensity of apoptotic cells varies considerably from cell to cell. These differences are difficult to interpret since the intensity depends on the probe concentration as well as on the size and confluence of the cells. […] According to our spectroscopy and flow cytometry data, the latter cells are apoptotic. […] Thus, unlike annexin V-FITC, these probes provide an absolute parameter, the intensity ratio, which can be calibrated, and can characterize the level of apoptosis independently of the probe/cell concentration and the excitation light intensity. In addition, the inventors have observed that in normal cells and cells on the initial steps of apoptosis, the T*/N* intensity ratio is not evenly distributed within the plasma membrane of a given cell. This may indicate an inhomogeneous lipid composition of their plasma membranes that is likely related to the presence of lipid domains.
The inventors also follow apoptotic transformation of the plasma membrane as a function of time. Normal and actinomycin D-treated cells were stained with the corresponding probe and the fluorescence images were subsequently recorded during 20 min. […]

T lymphoblastoid cells = assay: Flow cytometry analysis with annexin V-FITC, PI and F2N12S; assay type: cell-based, human
From the text: FIG. 6: Flow cytometry analysis of T lymphoblastoid cells treated by actinomycin D. Cells were stained by annexin V-FITC, PI and F2N12S. In (a), Annexin V-FITC and PI were selectively excited at 488 nm. Cells are sorted into living, dead and apoptotic cell populations. In (b), F2N12S is selectively excited at 407 nm. Living cells are discriminated from apoptotic and necrotic cells. In (c), the PI fluorescence intensities are plotted versus the T*/N* ratio of F2N12S. Living cells are in green, apoptotic cells are in cyan and dead cells are in orange. In (d), the populations sorted using the F2N12S/PI couple were colored according to their response with the annexin V/PI couple. The wavelengths of maximal transmission and bandwidths of used filters are indicated in brackets.
FIG. 7: Comparison of the intensiometric response of annexin V-FITC (a) with the ratiometric fluorescence response of F2N12S (b). Living, dead and apoptotic cells were identified as described in FIG. 6, by using either the annexin V-FITC/PI (a) or the F2N12S/PI (b) couple of dyes.
FIG. 8: Comparison of the response of annexin V-FITC and F2N12S on non-treated T lymphoblastoid cells stained by annexin V-FITC, PI and F2N12S. In (a), annexin V-FITC and PI were selectively excited at 488 nm. In (b), F2N12S is selectively excited at 407 nm. Cells are sorted into living and dead cell populations.
as §1
For the validation of F2N12S in cell cytometry, we used a FASCARIA™ (cell sorter) (BD Biosciences, CA, USA) equipped with an argon laser (488 nm) and a diode laser (407 nm) and emission filters DF30, DF42 and DF20 centered at 530 nm, 585 nm and 610 nm, respectively. The optical pathways corresponding to the argon laser and to the diode laser are independent. Data were analyzed using the FACSDIVA™ (cell sorter) Software (BD Biosciences). The granulation, size and fluorescence intensity were recorded at a rate of ˜1000 cells per second.
T lymphoblastoid cells were treated with actinomycin D and labeled simultaneously by FITC-labeled annexin V, propidium iodide (PI) and F2N12S. […] The emissions of FITC and PI were collected in the spectral regions of 515-545 nm and 600-620 nm, respectively. […] The emission light in this case was collected in two spectral regions: at 515-545 nm to monitor the emission of the N* band and 564-606 nm to collect the emission of the T* band (FIG. 6b). […] The second one is characterized by a high N*/T* intensity ratio (shown in red) and can be assigned to apoptotic and dead cells.
The probe of the invention F2N12S has been combined with PI and the fluorescence intensities of PI have been represented as a function of the T*/N* ratio of F2N12S (FIG. 6c). In this case, the populations of apoptotic and dead cells are clearly discriminated by using the differences in the PI intensities. […] This conclusion was further strengthened when the populations discriminated by the F2N12S/PI couple were colored according to their response with the annexin V-FITC/PI couple (FIG. 6d).

[1] = actinomycin D-treated cells, probe combined with PI

Molecule	content of hypodiploid DNA (CEM T cells)	time-dependent change of the fluorescence images (T lymphocytes; actinomycin D-treated cells, images recorded during 20 min)	which cells are stained in fluorescence images (T lymphocytes; normal and actinomycin D-treated cells)	percentage of apoptotic cells (T lymphoblastoid cells; [1])	percentage of dead cells (T lymphoblastoid cells; [1])	percentage of living cells (T lymphoblastoid cells; [1])	percentage of dead cells (T lymphoblastoid cells; non-treated T lymphoblastoid cells)
Cc1c2oc3c(C)ccc(C(=O)N[C@@H]4C(=O)N[C@H](C(C)C)C(=O)N5CCC[C@H]5C(=O)N(C)CC(=O)N(C)[C@@H](C(C)C)C(=O)O[C@@H]4C)c3nc-2c(C(=O)N[C@@H]2C(=O)N[C@H](C(C)C)C(=O)N3CCC[C@H]3C(=O)N(C)CC(=O)N(C)[C@@H](C(C)C)C(=O)O[C@@H]2C)c(N)c1=O [actinomycin D, Actinomycin D] (I: T[dV]P[Sar][NMeV] / II: T[dV]P[Sar][NMeV]; ester I:1-I:C, II:1-II:C; linker I:N-II:N via Actinocin(9to1))	30±2%	–	–	–	–	–	–
B1	–	not possible to detect any time-dependent changes	labels only apoptotic and necrotic cells	18%	49%	33%	5%
